Test results taken from paper PMC3173086.
pKd: −log10 of the molar value.

Target: MppA (murein tripeptide-binding protein of E. coli), His tag cleaved (E. coli K-12) (UniProt P77348)
Assay: other fluorescence titration

Chain of UniProt P77348 (P77348 23-537, tags left off): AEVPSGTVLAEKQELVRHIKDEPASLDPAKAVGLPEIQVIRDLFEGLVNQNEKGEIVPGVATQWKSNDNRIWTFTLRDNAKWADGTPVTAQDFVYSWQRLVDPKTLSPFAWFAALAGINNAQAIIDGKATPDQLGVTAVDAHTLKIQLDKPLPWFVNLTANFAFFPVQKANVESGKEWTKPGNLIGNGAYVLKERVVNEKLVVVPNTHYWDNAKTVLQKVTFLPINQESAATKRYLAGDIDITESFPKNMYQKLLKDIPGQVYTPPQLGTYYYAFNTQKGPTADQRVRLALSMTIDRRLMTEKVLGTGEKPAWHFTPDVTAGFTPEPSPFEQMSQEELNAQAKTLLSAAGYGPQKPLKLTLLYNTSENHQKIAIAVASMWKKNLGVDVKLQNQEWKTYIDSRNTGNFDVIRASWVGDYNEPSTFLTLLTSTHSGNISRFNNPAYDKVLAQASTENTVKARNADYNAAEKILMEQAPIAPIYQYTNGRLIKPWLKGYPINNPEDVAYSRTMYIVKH

L-Ala-γ-D-Glu-L-Lys (peptide)
pKd: 3.89
